The chains are these.
B1: CaV1.2 Ser1981 peptide (peptide)
peptide: RGFLRSASLGRRASFHL
notes: human CaV1.2 (α1c subunit) C-terminal tail, residues 1968-1984 around the PKA site Ser1981; also called S1981 peptide; CaV1.2 S1981 peptide; source: synthetic peptide
B2: CaV1.2 Ser1981 peptide F1982A (peptide)
peptide: RGFLRSASLGRRASAHL
notes: human CaV1.2 residues 1968-1984 with F1982A (P+1 position); also called F1982A peptide; S1981 (F1982A); source: synthetic peptide
B3: CaV1.2 Ser1981 peptide S1975R (peptide)
peptide: RGFLRSARLGRRASFHL
notes: also called S1975R peptide; S1981 (S1975R); source: synthetic peptide
B4: CaV1.2 Ser1981 peptide L1971A (peptide)
peptide: RGFARSASLGRRASFHL
notes: also called L1971A peptide; S1981 (L1971A); source: synthetic peptide
B5: Rad Ser272 peptide (peptide)
peptide: ARRQAGTRRRESLGK
notes: Rad GTPase C-terminal tail, residues 261-275 around Ser272; also called Rad S272 peptide; S272 peptide; source: synthetic peptide
B6: Rad Ser25 peptide (peptide)
peptide: GAGRERDRRRGSTPW
notes: Rad GTPase N-terminal tail, residues 14-28 around Ser25; also called Rad S25 peptide; source: synthetic peptide

The assay deals with catalytic subunit of PKA, isoform alpha, residues 16-351 (PKAcα_(16-351)), preparation for ITC (mouse, UniProt P05132-1 16-351). The experiment in a line: ITC; peptide or substrate (1.25 to 4.3 mM) titrated into the cell containing PKAc (149 to 204 μM); 4 °C; 50 mM Hepes (pH 7.4), 150 mM KCl, 5 mM MgCl2, 2 mM TCEP; 0.5 mM AMP-PNP in both solutions. The settings on record: both partners purified.
Turning to B1, the Kd is 34 µM, the dH is 3.11 kcal/mol and the “stoichiometry N” value worked out at 0.98.

Regarding B2, the Kd turned out to be 147 µM, the dH came out at 2.46 kcal/mol and the “stoichiometry N” value is 0.99.

Regarding B3, binding was put at a Kd of 532 µM, the dH stood at 3.35 kcal/mol and the “stoichiometry N” value was 1.08.

Consider B4, for which binding was characterised by a dissociation constant (Kd) of 18 µM, the dH turned out to be 2.63 kcal/mol and the “stoichiometry N” value worked out at 1.06.

B5: the Kd is 126 µM, the dH was -4.06 kcal/mol and the “stoichiometry N” value came to 0.98.

In the case of B6, the Kd is 460 µM, the dH is -2.61 kcal/mol and the “stoichiometry N” value is 0.83.

As usually defined, the Kd is the free concentration of one partner at which half of the binding sites on the other are occupied at equilibrium, for simple one-to-one binding. A word on the stoichiometry N: it is the number of molecules, sites or subunits per partner or assembly.

These data come from publication PMC11728977, “Crystallographic, kinetic, and calorimetric investigation of PKA interactions with L-type calcium channels and Rad GTPase” (The Journal of Biological Chemistry, 2024).
